Laboratory results from the Immune Epitope Database (IEDB).

Key:
HLA-A*02:01 [1] = experiment: IEDB peptide-MHC binding, purified MHC/competitive/radioactivity; filed as Kd, often an IC50 or EC50 that approximates it; ≥ and ≤ were set here for values at or beyond the usual limits of such assays
HLA-A*02:03 = experiment: as above
HLA-A*02:06 = experiment: as above
HLA-A*02:17 = experiment: as above
HLA-B*08:02 = experiment: IEDB peptide-MHC binding, purified MHC/direct/fluorescence; filed as Kd, often an IC50 or EC50 that approximates it; ≥ and ≤ were set here for values at or beyond the usual limits of such assays
HLA-A*03:01 [2] = experiment: as above
HLA-A*11:01 [3] = experiment: as above
HLA-A*31:01 [4] = experiment: IEDB peptide-MHC binding, purified MHC/competitive/fluorescence; filed as Kd, often an IC50 or EC50 that approximates it; ≥ and ≤ were set here for values at or beyond the usual limits of such assays
HLA-A*26:01 [5] = experiment: IEDB peptide-MHC binding, purified MHC/competitive/radioactivity; filed as Kd, often an IC50 or EC50 that approximates it; ≥ and ≤ were set here for values at or beyond the usual limits of such assays; conditions: source organism: Dengue virus 3 Martinique/1243/1999
HLA-A*01:01 = experiment: IEDB peptide-MHC binding, purified MHC/direct/fluorescence; filed as Kd, often an IC50 or EC50 that approximates it; ≥ and ≤ were set here for values at or beyond the usual limits of such assays; conditions: source organism: Camelpox virus M-96
HLA-A*02:01 [6] = experiment: as above
HLA-A*31:01 [7] = experiment: as above; conditions: source organism: Camelpox virus M-96
HLA-B*15:17 = experiment: as above; conditions: source organism: Camelpox virus M-96
HLA-B*27:05 = experiment: as above; conditions: source organism: Camelpox virus M-96
HLA-B*40:01 = experiment: as above; conditions: source organism: Camelpox virus M-96
HLA-B*46:01 = experiment: as above
HLA-B*48:01 = experiment: as above; conditions: source organism: Camelpox virus M-96
HLA-B*58:01 = experiment: as above; conditions: source organism: Camelpox virus M-96
HLA-A*11:01 [8] = experiment: IEDB peptide-MHC binding, purified MHC/competitive/fluorescence; filed as Kd, often an IC50 or EC50 that approximates it; ≥ and ≤ were set here for values at or beyond the usual limits of such assays
HLA-A*69:01 = experiment: as above; conditions: source organism: Vaccinia virus Copenhagen
HLA-B*15:01 [9] = experiment: as above; conditions: source organism: Vaccinia virus Copenhagen
HLA-B*57:01 [10] = experiment: as above; conditions: source organism: Vaccinia virus Copenhagen
HLA-A*03:01 [11] = experiment: IEDB peptide-MHC binding, purified MHC/competitive/fluorescence; ≥ and ≤ were set here for values at or beyond the usual limits of such assays; conditions: source organism: Zaire ebolavirus
HLA-A*11:01 [12] = experiment: as above; conditions: source organism: Zaire ebolavirus
HLA-B*07:02 = experiment: as above
HLA-A*03:01 [13] = experiment: IEDB peptide-MHC binding, purified MHC/competitive/fluorescence; filed as Kd, often an IC50 or EC50 that approximates it; ≥ and ≤ were set here for values at or beyond the usual limits of such assays; conditions: source organism: Escherichia coli 536
HLA-B*08:01 = experiment: IEDB peptide-MHC binding, purified MHC/competitive/radioactivity; filed as Kd, often an IC50 or EC50 that approximates it; ≥ and ≤ were set here for values at or beyond the usual limits of such assays
HLA-A*02:12 = experiment: IEDB peptide-MHC binding, purified MHC/direct/fluorescence; filed as Kd, often an IC50 or EC50 that approximates it; ≥ and ≤ were set here for values at or beyond the usual limits of such assays; conditions: source organism: Brucella suis 1330
HLA-A*02:16 = experiment: as above; conditions: source organism: Brucella suis 1330
HLA-A*02:19 = experiment: as above; conditions: source organism: Brucella suis 1330
HLA-A*26:01 [14] = experiment: as above; conditions: source organism: Brucella suis 1330
HLA-B*15:01 [15] = experiment: as above; conditions: source organism: Brucella suis 1330
HLA-B*18:01 = experiment: as above; conditions: source organism: Brucella suis 1330
HLA-B*51:01 = experiment: as above; conditions: source organism: Brucella suis 1330
HLA-B*57:01 [16] = experiment: as above; conditions: source organism: Brucella suis 1330
HLA-A*24:02 = experiment: IEDB peptide-MHC binding, purified MHC/competitive/fluorescence; ≥ and ≤ were set here for values at or beyond the usual limits of such assays
HLA-B*15:01 [17] = experiment: as above; conditions: source organism: Vaccinia virus Copenhagen
HLA-C*06:02 = experiment: IEDB peptide-MHC binding, purified MHC/direct/fluorescence; filed as Kd, often an IC50 or EC50 that approximates it; ≥ and ≤ were set here for values at or beyond the usual limits of such assays; conditions: source organism: Burkholderia mallei ATCC 23344
HLA-A*02:01 [18] = experiment: IEDB peptide-MHC binding, purified MHC/competitive/fluorescence; filed as Kd, often an IC50 or EC50 that approximates it; ≥ and ≤ were set here for values at or beyond the usual limits of such assays
HLA-A*02:01 [19] = experiment: IEDB peptide-MHC binding, purified MHC/competitive/fluorescence; ≥ and ≤ were set here for values at or beyond the usual limits of such assays; conditions: source organism: Zaire ebolavirus
HLA-A*23:01 = experiment: IEDB peptide-MHC binding, purified MHC/competitive/fluorescence; filed as Kd, often an IC50 or EC50 that approximates it; ≥ and ≤ were set here for values at or beyond the usual limits of such assays
HLA-B*15:01 [20] = experiment: IEDB peptide-MHC binding, purified MHC/competitive/radioactivity; filed as Kd, often an IC50 or EC50 that approximates it; ≥ and ≤ were set here for values at or beyond the usual limits of such assays; conditions: source organism: Dengue virus 3 Martinique/1243/1999
[21] = source organism: Dengue virus 2 Jamaica/1409/1983
[22] = source organism: Camelpox virus M-96
[23] = source organism: Vaccinia virus Copenhagen
[24] = source organism: Zaire ebolavirus
[25] = source organism: Escherichia coli 536
[26] = source organism: Influenza A virus (A/Goose/Hong Kong/385.3/2000(H5N1))
[27] = source organism: Dengue virus 1 Singapore/S275/1990
[28] = source organism: Dengue virus 2 Thailand/NGS-C/1944
[29] = source organism: Dengue virus 2 16681-PDK53
[30] = source organism: Brucella suis 1330
[31] = source organism: Mycobacterium tuberculosis
[32] = source organism: Burkholderia mallei ATCC 23344
[33] = source organism: Dengue virus 4 Philippines/H241/1956
[34] = source organism: Giardia lamblia ATCC 50803
[35] = source organism: Dengue virus 3 Martinique/1243/1999

AIYGAAFSGV
Kd (HLA-A*02:01 [1]; [21]): 1.05 nM | Kd (HLA-A*02:03; [21]): 8.6 nM | Kd (HLA-A*02:06; [21]): 4.57 nM | Kd (HLA-A*02:17; [21]): 627 nM

DLKRKFYTL
Kd (HLA-B*08:02; source organism: Campylobacter jejuni subsp. jejuni 81116): 154 nM

DVNGIRKPK
Kd (HLA-A*03:01 [2]; source organism: Amur virus): ≥ 20000 nM | Kd (HLA-A*11:01 [3]; source organism: Amur virus): ≥ 20000 nM | Kd (HLA-A*31:01 [4]; source organism: Orthohantavirus dobravaense): ≥ 20000 nM

ELKGMSYAM
Kd (HLA-B*08:02; source organism: dengue virus type 3): ≥ 20000 nM | Kd (HLA-A*26:01 [5]): 1740 nM

FTENGPWMY
Kd (HLA-A*01:01): 2.7 nM | Kd (HLA-A*02:01 [6]; [22]): ≥ 20 µM | Kd (HLA-A*03:01 [2]; [22]): ≥ 20000 nM | Kd (HLA-A*31:01 [7]): ≥ 20 µM | Kd (HLA-B*08:02; source organism: Variola virus): ≥ 20000 nM | Kd (HLA-B*15:17): 5.2 nM | Kd (HLA-B*27:05): ≥ 20 µM | Kd (HLA-B*40:01): ≥ 20 µM | Kd (HLA-B*46:01; [22]): ≥ 20 µM | Kd (HLA-B*48:01): ≥ 20 µM | Kd (HLA-B*58:01): ≥ 20 µM | Kd (HLA-A*11:01 [8]; [23]): ≥ 20000 nM | Kd (HLA-A*69:01): ≥ 20 µM | Kd (HLA-B*15:01 [9]): ≥ 20 µM | Kd (HLA-B*57:01 [10]): ≥ 20 µM

GIRGFPRCR
IC50 (HLA-A*03:01 [11]): 1060 nM | IC50 (HLA-A*11:01 [12]): 42.1 µM | IC50 (HLA-B*07:02; [24]): ≥ 451 µM

GMSSRAIAR
Kd (HLA-A*03:01 [13]): 15 nM | Kd (HLA-A*31:01 [4]; [25]): 8.5 nM

GPAAEGIYI
IC50 (HLA-B*07:02; [24]): 60.4 µM

IIAARNIVR
Kd (HLA-A*03:01 [2]; [26]): 1540 nM | Kd (HLA-A*11:01 [3]; [26]): ≥ 20000 nM | Kd (HLA-A*31:01 [4]; source organism: Influenza A virus H3N2): 3.62 nM

KTYFEKVERLK
Kd (HLA-A*11:01 [8]; source organism: Influenza A virus (A/swine/Scotland/410440/94(H1N2))): 28.7 nM

LLFKTSVGV
Kd (HLA-A*02:01 [1]; [27]): 3.22 nM | Kd (HLA-A*02:03; [27]): 9.08 nM | Kd (HLA-A*02:17; [27]): 90.3 nM

LPAAPDGIR
IC50 (HLA-B*07:02; [24]): 54.7 µM

LQMENKAWLV
Kd (HLA-A*02:01 [1]; [28]): 10.1 nM | Kd (HLA-A*02:06; [29]): 1.17 nM | Kd (HLA-A*02:17; [28]): 142 nM | Kd (HLA-B*08:01; [29]): 6.75 µM

MRIGSMATL
Kd (HLA-A*02:01 [6]; [30]): ≥ 20 µM | Kd (HLA-A*02:12): ≥ 20 µM | Kd (HLA-A*02:16): ≥ 20 µM | Kd (HLA-A*02:19): ≥ 20 µM | Kd (HLA-A*03:01 [2]; [30]): ≥ 20000 nM | Kd (HLA-A*26:01 [14]): ≥ 20 µM | Kd (HLA-B*15:01 [15]): ≥ 20 µM | Kd (HLA-B*18:01): ≥ 20 µM | Kd (HLA-B*46:01; [30]): ≥ 20 µM | Kd (HLA-B*51:01): ≥ 20 µM | Kd (HLA-B*57:01 [16]): ≥ 20 µM

RIPNSLHSL
IC50 (HLA-A*24:02; [23]): 0.656 µM | IC50 (HLA-B*07:02; [23]): 37.2 µM | IC50 (HLA-B*15:01 [17]): 22.7 µM

RLNFFTPTK
Kd (HLA-A*03:01 [2]; [31]): 5.9 nM | Kd (HLA-A*11:01 [3]; [31]): 3.1 nM | Kd (HLA-A*31:01 [4]; source organism: Mycobacterium tuberculosis variant bovis BCG str. Pasteur 1173P2): 2.3 nM

RLRRRRHPL
Kd (HLA-B*08:02; [32]): 1190 nM | Kd (HLA-C*06:02): ≥ 20 µM | Kd (HLA-A*02:01 [18]; [32]): ≥ 20 µM

RMVLAFITFL
Kd (HLA-A*02:01 [1]; [33]): 3.25 nM | Kd (HLA-A*02:17; [33]): 1.76 nM

RVHSFFIQY
Kd (HLA-A*03:01 [2]; [34]): 68.1 nM | Kd (HLA-A*11:01 [3]; [34]): ≤ 1 nM | Kd (HLA-A*31:01 [4]; [34]): 161 nM

SSFQDILLR
Kd (HLA-A*03:01 [2]; source organism: Influenza A virus (A/Memphis/14/1998(H3N2))): ≥ 20000 nM | Kd (HLA-A*31:01 [4]; source organism: Influenza A virus (A/X-31(H3N2))): 309 nM

SSSPQPKKK
Kd (HLA-A*11:01 [8]; source organism: Homo sapiens): 554 nM

TELRTFSIL
IC50 (HLA-A*02:01 [19]): ≥ 395 µM | IC50 (HLA-A*24:02; [24]): 8.43 µM | IC50 (HLA-B*07:02; [24]): 50.3 µM

TFYAEFPKK
Kd (HLA-A*23:01; source organism: Escherichia coli F11): 66.2 nM

TLGMCCIITA
Kd (HLA-A*02:01 [1]; [21]): 67.4 nM | Kd (HLA-A*02:17; [21]): 16900 nM

TVKRYLQAK
Kd (HLA-A*03:01 [13]): 2840 nM | Kd (HLA-A*31:01 [4]; [25]): 55.7 nM

WYMRALYQK
Kd (HLA-A*23:01; source organism: Entamoeba histolytica HM-1:IMSS): 388 nM

YARLRKEVL
Kd (HLA-B*08:02; [34]): 350 nM | Kd (HLA-A*02:01 [18]; [34]): ≥ 20 µM

YQLWTALISL
Kd (HLA-A*02:01 [1]; [35]): 18.8 nM | Kd (HLA-A*02:06; [35]): 1.75 nM | Kd (HLA-A*02:17; [35]): 104 nM | Kd (HLA-B*08:01; [35]): 1.32 µM | Kd (HLA-B*15:01 [20]): 5.62 nM
